Measurements: paper PMC4072508, “Genome-Wide Prediction and Validation of Peptides That Bind Human Prosurvival Bcl-2 Proteins” (PLoS Computational Biology, 2014)

B1: PRCP (peptide)
chain: DDMFEPHSWNDKELSDDCFQQWGVRP
B2: CYP2A6 (peptide)
chain: MPYMEAVIHEIQRFLDVIPMSLARRV
B3: PRDX4 (peptide)
chain: LDFTFVCPTEDIAFGDRLEEFRSINT
B4: PMAIP1 (peptide)
chain: AELEVECATQLRRFLDKLNFRQKLLN
B5: PRCP (peptide)
chain: DDMFEPHSWNLKELLDDCFQQWGVRP
B6: SRL (peptide)
chain: GYPFNDVCQWDIDRADLIFVVFDPTK
B7: CRB1 (peptide)
chain: TGSLCEIATTLSFELDGFLWVKSGSV
B8: DDX4 (peptide)
chain: FSKREKLVEILRNILDERTMVFVETK
B9: FBXO30 (peptide)
chain: LCQLSCVSKLDRDVCGSLLQSRGMVI
B10: FOXI1 (peptide)
chain: PDKRLTLSQIYQYVLDNFPFYNKSKA
B11: SLC38A8 (peptide)
chain: LNLLMISVAFDRVIGDQLEKLCDSLL
B12: TMEM214 (peptide)
chain: SFLSAHCASHLAWFLDSLTSLSQRLQ
B13: HEXDC (peptide)
chain: VLELHPGAQRLHIGCDEVYYLGEGEA
B14: GBP6 (peptide)
chain: NDDTPWIARTDDNLADELTAILSAPA
B15: DHX30 (peptide)
chain: PVESSWIAPELRLQLDDILPLGKDSG
B16: KCNH1 (peptide)
chain: VHKHSRLAEVDQLGSDILPQYKQEAP
B17: BBS10 (peptide)
chain: RMIVDCVSSHLKKTGDGAKTFIIFLC
B18: SYT1 (peptide)
chain: FVGYNSTGAEDRHWSDMLANPRRPIA
B19: GBP6 (peptide)
chain: NDDTPWIARTLDNLADELTAILSAPA
B20: FUT8 (peptide)
chain: KKLKNLEGNELQRHADEFLLDLGHHE
B21: DHX30 (peptide)
chain: PVESSWIAPEDRLQSDDILPLGKDSG
B22: ZNF295 (peptide)
chain: ERLKGQLCDVDLIVGDQKFRAHKNVL
B23: PRKD3 (peptide)
chain: IQENVDISTVDQIFADEVLGSGQFGI
B24: TAP1 (peptide)
chain: MSILTIASAVLEFVLDGIYNNTMGHV
B25: ISOC1 (peptide)
chain: AGYELLIQKFLSLYGDQIDMHRKFVV
B26: PPAT (peptide)
chain: RLRQLGVAKKFGVLLDNFKGKRIVLV
B27: WRAP53 (peptide)
chain: RKDAELLCWDDRQSGYPLWSLGREVT
B28: PURB (peptide)
chain: FKAWGKFGGADCRYADEMKEIQERQR
B29: RBL1 (peptide)
chain: WTLFVYTKGNFRMILDDLVNSYHLLL
B30: RNF160 (peptide)
chain: WLKGDILGEKLVNLLDCLCNEDLESR
B31: BMF (peptide)
chain: HQAEVQIARKLQCILDQFHRLHVQQH
B32: ZFP90 (peptide)
chain: PSECETLGSNLGHNADLLNENNILAK

Target: T1, Mcl-1, Q07820
T1 chain: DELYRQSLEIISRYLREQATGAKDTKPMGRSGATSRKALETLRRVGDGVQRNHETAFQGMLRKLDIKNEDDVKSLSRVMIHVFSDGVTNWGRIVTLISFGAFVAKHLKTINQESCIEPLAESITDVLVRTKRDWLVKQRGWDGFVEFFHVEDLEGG
Assay: peptide SPOT array, c-Myc-tagged receptor at 1 uM or 100 nM, anti-c-Myc-Cy3

| Binder | SPOT signal as a fraction of Bim BH3's signal on the same receptor and array |
| --- | --- |
| B1 | 0.04 |
| B2 | 0.08 |
| B3 | 0.04 |
| B4 | 0.1 |
| B5 | 0.04 |
| B6 | 0.06 |
| B7 | 0.04 |
| B8 | 0.15 |
| B9 | 0.08 |
| B10 | 0.39 |
| B11 | 0.04 |
| B12 | 0.07 |
| B13 | 0.05 |
| B14 | 0.04 |
| B15 | 0.04 |
| B16 | 0.13 |

| Binder | SPOT signal as a fraction of Bim BH3's signal on the same receptor and array |
| --- | --- |
| B17 | 0.17 |
| B18 | 0.08 |
| B19 | 0.04 |
| B20 | 0.05 |
| B21 | 0.04 |
| B22 | 0.08 |
| B23 | 0.03 |
| B24 | 0.04 |
| B25 | 0.13 |
| B26 | 0.93 |
| B27 | 0.04 |
| B28 | 0.83 |
| B29 | 0.11 |
| B30 | 0.06 |
| B31 | 0.1 |
| B32 | 0.04 |

Each binder was assayed against Bcl-xL, Q07817 in the same assay as above.
Bcl-xL, Q07817, sequence (Q07817 1-209): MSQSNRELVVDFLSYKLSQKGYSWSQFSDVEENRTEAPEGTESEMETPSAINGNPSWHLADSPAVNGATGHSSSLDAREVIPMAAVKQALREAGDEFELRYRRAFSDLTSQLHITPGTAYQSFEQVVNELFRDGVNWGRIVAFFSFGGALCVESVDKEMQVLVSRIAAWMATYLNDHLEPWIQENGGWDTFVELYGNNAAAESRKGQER

| Binder | SPOT signal as a fraction of Bim BH3's signal on the same receptor and array |
| --- | --- |
| B1 | 0.07 |
| B2 | 0.14 |
| B3 | 0.06 |
| B4 | 0.2 |
| B5 | 0.07 |
| B6 | 0.07 |
| B7 | 0.07 |
| B8 | 0.08 |
| B9 | 0.14 |
| B10 | 0.76 |
| B11 | 0.05 |
| B12 | 0.08 |
| B13 | 0.06 |
| B14 | 0.04 |
| B15 | 0.05 |
| B16 | 0.1 |

| Binder | SPOT signal as a fraction of Bim BH3's signal on the same receptor and array |
| --- | --- |
| B17 | 1 |
| B18 | 0.11 |
| B19 | 0.04 |
| B20 | 0.12 |
| B21 | 0.05 |
| B22 | 0.16 |
| B23 | 0.07 |
| B24 | 0.06 |
| B25 | 0.13 |
| B26 | 1.27 |
| B27 | 0.06 |
| B28 | 0.66 |
| B29 | 0.09 |
| B30 | 0.07 |
| B31 | 0.27 |
| B32 | 0.09 |

Target: T2, Bfl-1, Q16548
T2 chain: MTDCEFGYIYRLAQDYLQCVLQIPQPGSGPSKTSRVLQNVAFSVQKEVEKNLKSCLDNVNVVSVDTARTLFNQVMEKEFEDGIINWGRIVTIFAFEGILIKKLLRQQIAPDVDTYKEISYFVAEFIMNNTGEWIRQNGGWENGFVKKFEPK
Assay: as above

| Binder | SPOT signal as a fraction of Bim BH3's signal on the same receptor and array |
| --- | --- |
| B1 | 0.05 |
| B2 | 0.06 |
| B3 | 0.03 |
| B4 | 0.17 |
| B5 | 0.05 |
| B6 | 0.05 |
| B7 | 0.03 |
| B8 | 0.08 |
| B9 | 0.11 |
| B10 | 0.41 |
| B11 | 0.04 |
| B12 | 0.08 |
| B13 | 0.05 |
| B14 | 0.03 |
| B15 | 0.04 |
| B16 | 0.06 |

| Binder | SPOT signal as a fraction of Bim BH3's signal on the same receptor and array |
| --- | --- |
| B17 | 0.36 |
| B18 | 0.07 |
| B19 | 0.04 |
| B20 | 0.05 |
| B21 | 0.04 |
| B22 | 0.07 |
| B23 | 0.04 |
| B24 | 0.04 |
| B25 | 0.06 |
| B26 | 0.69 |
| B27 | 0.04 |
| B28 | 0.76 |
| B29 | 0.13 |
| B30 | 0.05 |
| B31 | 0.1 |
| B32 | 0.03 |
